Reference: the supplement of paper PMC10065799, “High-throughput profiling of sequence recognition by tyrosine kinases and SH2 domains using bacterial peptide display” (eLife, 2023)

Assays:
Jak2 = Jak2 (UniProt O60674); assay: phosphorylation enrichment, bacterial display (enrichment ratio); higher = better substrate or ligand; peptides without Tyr show the background
Fer (mouse) = assay: as above
EPHB2 = EPHB2 (UniProt P29323); assay: as above
FGFR1 = FGFR1 (UniProt P11362); assay: as above
EPHB1 = EPHB1 (UniProt P54762); assay: as above
Fes = Fes (UniProt P07332); assay: as above
c-Src = assay: as above
Fyn = Fyn (UniProt P06241); assay: as above
FGFR3 = FGFR3 (UniProt P22607); assay: as above
c-Abl (mouse) = assay: as above
Hck = Hck (UniProt P08631); assay: as above
MERTK = MERTK (UniProt Q12866); assay: as above
AncSZ = assay: as above
SHP2-C SH2 = assay: SH2 binding enrichment of the phosphorylated peptide, bacterial display (enrichment ratio); higher = better substrate or ligand; peptides without Tyr show the background
Grb2 SH2 = Grb2 SH2 (UniProt P62993); assay: as above
c-Src SH2 = assay: as above
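For SH2 binding enrichment of the phosphorylated peptide, bacterial display in this document: peptide library displayed on the E. coli surface as eCPX fusions, selected cells deep-sequenced, score is each peptide's frequency after selection divided by its frequency in the input.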
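For phosphorylation enrichment, bacterial display in this document: 11-residue human phosphosite peptides and single-mutation variants displayed on the E. coli surface, counted by deep sequencing, each peptide's frequency after selection divided by its frequency in the unselected input library; frequency after pTyr selection over input frequency; kinase dosed for 20-30% of maximal phosphorylation in three min.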

Chain of Hck (P08631 whole entry, looked up): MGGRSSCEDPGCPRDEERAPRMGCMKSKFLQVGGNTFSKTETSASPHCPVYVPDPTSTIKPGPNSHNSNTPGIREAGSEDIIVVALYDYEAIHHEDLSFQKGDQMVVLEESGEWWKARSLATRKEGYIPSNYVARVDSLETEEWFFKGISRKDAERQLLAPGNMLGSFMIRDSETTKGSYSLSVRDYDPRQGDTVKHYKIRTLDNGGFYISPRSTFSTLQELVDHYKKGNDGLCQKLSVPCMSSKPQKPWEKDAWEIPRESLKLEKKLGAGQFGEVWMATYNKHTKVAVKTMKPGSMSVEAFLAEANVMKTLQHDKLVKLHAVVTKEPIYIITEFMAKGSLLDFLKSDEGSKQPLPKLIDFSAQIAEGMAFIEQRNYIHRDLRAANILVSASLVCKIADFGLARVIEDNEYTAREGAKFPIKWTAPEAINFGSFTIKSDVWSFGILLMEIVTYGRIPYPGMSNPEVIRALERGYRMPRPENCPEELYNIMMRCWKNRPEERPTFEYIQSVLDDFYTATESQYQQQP
Chain of FGFR1 (P11362 whole entry, looked up): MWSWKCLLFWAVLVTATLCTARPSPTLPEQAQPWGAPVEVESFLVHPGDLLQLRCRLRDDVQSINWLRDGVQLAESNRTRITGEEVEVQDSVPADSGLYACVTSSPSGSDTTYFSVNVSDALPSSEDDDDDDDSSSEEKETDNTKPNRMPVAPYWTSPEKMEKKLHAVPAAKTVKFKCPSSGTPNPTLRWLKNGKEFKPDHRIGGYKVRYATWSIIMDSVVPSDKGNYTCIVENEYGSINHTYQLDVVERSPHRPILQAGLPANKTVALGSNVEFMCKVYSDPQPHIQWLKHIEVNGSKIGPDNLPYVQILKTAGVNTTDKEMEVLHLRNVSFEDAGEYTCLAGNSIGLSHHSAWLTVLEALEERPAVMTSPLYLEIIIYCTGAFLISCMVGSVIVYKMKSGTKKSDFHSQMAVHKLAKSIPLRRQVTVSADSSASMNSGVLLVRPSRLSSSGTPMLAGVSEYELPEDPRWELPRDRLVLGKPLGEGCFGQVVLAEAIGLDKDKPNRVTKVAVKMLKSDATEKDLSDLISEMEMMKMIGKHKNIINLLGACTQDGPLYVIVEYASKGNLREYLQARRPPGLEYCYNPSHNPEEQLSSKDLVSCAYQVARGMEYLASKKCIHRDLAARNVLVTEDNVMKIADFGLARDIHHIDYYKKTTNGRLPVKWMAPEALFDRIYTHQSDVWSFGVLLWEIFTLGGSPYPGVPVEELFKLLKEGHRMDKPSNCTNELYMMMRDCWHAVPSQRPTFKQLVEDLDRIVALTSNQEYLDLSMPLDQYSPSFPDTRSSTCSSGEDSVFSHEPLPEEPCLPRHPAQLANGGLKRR
Chain of Grb2 SH2 (P62993 whole entry, looked up): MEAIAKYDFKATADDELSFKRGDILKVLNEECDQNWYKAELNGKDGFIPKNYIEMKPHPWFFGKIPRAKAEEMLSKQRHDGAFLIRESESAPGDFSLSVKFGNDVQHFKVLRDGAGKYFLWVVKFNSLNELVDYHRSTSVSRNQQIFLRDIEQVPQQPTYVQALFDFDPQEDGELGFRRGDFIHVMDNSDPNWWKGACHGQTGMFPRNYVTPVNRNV
Chain of Fyn (P06241 whole entry, looked up): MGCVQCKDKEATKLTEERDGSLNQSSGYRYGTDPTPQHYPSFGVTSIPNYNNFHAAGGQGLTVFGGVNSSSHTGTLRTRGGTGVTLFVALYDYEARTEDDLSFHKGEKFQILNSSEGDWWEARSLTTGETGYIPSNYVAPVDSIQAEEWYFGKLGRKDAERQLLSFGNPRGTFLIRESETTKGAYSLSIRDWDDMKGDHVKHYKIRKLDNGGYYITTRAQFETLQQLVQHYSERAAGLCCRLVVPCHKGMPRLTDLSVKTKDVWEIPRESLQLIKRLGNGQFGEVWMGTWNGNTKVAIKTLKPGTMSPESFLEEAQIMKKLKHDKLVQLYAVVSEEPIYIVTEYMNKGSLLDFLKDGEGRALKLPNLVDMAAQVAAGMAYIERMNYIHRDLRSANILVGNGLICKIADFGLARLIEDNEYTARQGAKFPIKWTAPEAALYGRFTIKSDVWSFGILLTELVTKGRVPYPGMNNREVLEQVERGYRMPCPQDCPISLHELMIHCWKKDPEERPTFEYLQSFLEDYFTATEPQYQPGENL
Chain of MERTK (Q12866 whole entry, looked up): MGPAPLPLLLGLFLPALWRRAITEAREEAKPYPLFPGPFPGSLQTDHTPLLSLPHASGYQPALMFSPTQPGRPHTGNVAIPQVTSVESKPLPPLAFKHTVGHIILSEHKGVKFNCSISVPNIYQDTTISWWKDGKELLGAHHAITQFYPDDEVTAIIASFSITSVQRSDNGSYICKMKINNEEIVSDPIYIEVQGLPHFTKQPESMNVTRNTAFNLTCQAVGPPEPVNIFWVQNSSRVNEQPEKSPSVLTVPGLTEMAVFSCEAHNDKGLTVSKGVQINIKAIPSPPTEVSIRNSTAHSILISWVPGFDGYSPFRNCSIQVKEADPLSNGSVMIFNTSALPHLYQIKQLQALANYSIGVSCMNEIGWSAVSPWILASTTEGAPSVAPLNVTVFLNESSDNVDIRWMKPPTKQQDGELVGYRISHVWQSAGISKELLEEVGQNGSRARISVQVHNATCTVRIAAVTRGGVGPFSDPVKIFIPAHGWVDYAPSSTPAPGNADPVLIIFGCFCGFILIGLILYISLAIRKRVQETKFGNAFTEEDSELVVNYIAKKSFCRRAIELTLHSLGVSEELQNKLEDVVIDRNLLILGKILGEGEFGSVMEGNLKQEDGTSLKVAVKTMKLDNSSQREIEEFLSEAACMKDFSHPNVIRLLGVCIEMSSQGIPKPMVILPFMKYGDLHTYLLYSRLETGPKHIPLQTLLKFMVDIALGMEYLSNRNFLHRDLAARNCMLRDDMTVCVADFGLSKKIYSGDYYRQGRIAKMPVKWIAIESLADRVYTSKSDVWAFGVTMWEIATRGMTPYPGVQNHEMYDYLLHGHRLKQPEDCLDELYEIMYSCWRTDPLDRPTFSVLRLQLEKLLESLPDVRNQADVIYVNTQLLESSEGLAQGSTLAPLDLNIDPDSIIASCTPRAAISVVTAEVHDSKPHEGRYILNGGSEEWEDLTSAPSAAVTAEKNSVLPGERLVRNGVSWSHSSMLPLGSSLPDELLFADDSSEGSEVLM
Chain of EPHB1 (P54762 whole entry, looked up): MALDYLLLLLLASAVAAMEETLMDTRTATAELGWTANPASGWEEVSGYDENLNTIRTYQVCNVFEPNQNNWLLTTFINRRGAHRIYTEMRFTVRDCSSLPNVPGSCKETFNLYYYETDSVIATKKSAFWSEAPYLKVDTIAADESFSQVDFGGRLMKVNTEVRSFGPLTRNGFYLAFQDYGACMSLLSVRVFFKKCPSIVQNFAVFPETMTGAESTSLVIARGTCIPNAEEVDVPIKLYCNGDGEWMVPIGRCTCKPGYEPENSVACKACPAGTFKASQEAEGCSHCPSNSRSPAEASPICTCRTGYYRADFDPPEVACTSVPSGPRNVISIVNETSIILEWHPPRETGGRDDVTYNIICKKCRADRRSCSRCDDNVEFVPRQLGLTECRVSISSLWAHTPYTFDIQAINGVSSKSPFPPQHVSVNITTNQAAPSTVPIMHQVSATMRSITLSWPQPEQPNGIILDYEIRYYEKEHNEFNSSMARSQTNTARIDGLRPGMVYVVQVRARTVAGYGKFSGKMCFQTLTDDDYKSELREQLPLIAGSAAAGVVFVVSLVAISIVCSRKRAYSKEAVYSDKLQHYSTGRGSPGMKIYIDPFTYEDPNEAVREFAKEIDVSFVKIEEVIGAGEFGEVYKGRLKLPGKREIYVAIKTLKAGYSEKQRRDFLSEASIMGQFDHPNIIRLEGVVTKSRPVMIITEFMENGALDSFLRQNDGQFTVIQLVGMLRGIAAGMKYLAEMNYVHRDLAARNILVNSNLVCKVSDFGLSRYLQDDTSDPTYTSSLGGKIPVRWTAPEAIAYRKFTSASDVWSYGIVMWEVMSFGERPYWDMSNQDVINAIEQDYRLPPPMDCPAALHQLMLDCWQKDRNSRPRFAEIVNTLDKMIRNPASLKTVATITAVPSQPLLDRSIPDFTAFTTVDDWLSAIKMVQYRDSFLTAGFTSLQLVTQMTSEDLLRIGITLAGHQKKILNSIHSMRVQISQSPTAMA
Chain of Fes (P07332 whole entry, looked up): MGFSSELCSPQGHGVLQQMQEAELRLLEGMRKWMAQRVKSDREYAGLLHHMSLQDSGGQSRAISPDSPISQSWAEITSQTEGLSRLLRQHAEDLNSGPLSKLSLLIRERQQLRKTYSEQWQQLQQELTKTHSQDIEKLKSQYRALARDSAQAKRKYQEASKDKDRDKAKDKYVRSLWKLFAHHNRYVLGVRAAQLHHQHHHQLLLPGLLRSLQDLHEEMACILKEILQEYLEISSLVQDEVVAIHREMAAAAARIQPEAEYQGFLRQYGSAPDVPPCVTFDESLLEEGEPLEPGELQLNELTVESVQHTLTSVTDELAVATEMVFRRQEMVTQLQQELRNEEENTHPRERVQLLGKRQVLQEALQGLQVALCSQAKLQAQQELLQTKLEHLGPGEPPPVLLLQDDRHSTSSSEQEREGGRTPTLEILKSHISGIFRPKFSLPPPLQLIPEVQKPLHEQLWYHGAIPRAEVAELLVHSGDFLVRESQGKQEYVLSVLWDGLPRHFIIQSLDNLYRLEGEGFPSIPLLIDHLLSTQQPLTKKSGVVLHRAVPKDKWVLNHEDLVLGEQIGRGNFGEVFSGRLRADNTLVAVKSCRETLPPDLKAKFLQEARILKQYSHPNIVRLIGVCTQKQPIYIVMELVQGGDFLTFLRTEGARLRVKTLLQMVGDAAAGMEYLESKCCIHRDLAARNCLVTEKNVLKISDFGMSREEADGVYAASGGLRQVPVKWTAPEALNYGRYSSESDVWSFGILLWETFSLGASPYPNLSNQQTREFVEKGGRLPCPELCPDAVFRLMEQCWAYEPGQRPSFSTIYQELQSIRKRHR

| Sequence | phosphorylation enrichment (Jak2) | phosphorylation enrichment (Fer (mouse)) | phosphorylation enrichment (EPHB2) | phosphorylation enrichment (FGFR1) | phosphorylation enrichment (EPHB1) | phosphorylation enrichment (Fes) | phosphorylation enrichment (c-Src) | phosphorylation enrichment (Fyn) | phosphorylation enrichment (FGFR3) | phosphorylation enrichment (c-Abl (mouse)) | phosphorylation enrichment (Hck) | phosphorylation enrichment (MERTK) | phosphorylation enrichment (AncSZ) | SH2 binding enrichment (SHP2-C SH2) | SH2 binding enrichment (Grb2 SH2) | SH2 binding enrichment (c-Src SH2) |
| --- | --- | --- | --- | --- | --- | --- | --- | --- | --- | --- | --- | --- | --- | --- | --- | --- |
| GHLYAYDWISI [BEST1_Y227] | 0.923 | 15 | 5.04 | 8.88 | 6.51 | 3.56 | 2.38 | 2.24 | 6.48 | 0.848 | 2.99 | 9.38 | 1.98 | 1.31 | 1.56 | 1.76 |
| EHIEFYELDKK [PMM2_Y145_R141H] | 0.746 | 0.456 | 0.492 | 0.487 | 0.4 | 1.1 | 1.11 | 0.566 | 0.571 | 0.588 | 0.445 | 0.514 | 1.01 | 0.632 | 0.688 | 0.559 |
| GLSDPYVKIHL [SYT2_Y309] | 0.787 | 0.488 | 0.721 | 0.546 | 0.425 | 0.993 | 0.376 | 0.458 | 0.589 | 0.556 | 0.406 | 0.397 | 0.693 | 1.07 | 0.873 | 0.836 |
| HMEAVYIDIAD [PITPNA_Y140_V136M] | 2.26 | 8.49 | 5.08 | 13.6 | 9.76 | 2.85 | 3.62 | 3.86 | 10.2 | 1.06 | 2.85 | 1.43 | 3.91 | 0.847 | 1.23 | 0.696 |
| QRASDYFSQQM [GBP6_Y333_A331S_YF] | 1.02 | 0.667 | 0.854 | 0.684 | 1.56 | 1.49 | 0.632 | 0.662 | 1.39 | 1.28 | 0.866 | 0.711 | 1.29 | 0.964 | 0.668 | 0.464 |
| LVSCTYQLARG [FGFR2_Y608] | 0.983 | 0.605 | 0.62 | 0.452 | 0.536 | 1.08 | 0.783 | 0.579 | 0.698 | 0.91 | 0.483 | 0.443 | 1.23 | 0.7 | 0.894 | 0.515 |
| LGRKLYSIAAP [ABHD12_Y345] | 2.38 | 0.952 | 1.04 | 0.543 | 0.664 | 1.13 | 0.647 | 0.737 | 1.12 | 0.892 | 0.73 | 1.04 | 1.3 | 0.583 | 0.788 | 0.593 |
| FDSPFYQDSLP [TSC1_Y508_R509Q] | 0.805 | 2.88 | 0.489 | 0.357 | 0.503 | 1.09 | 0.473 | 0.482 | 0.599 | 0.737 | 0.521 | 0.431 | 0.848 | 0.688 | 0.917 | 0.586 |
| PEFMVYKPQME [CCRL2_Y170_V168M] | 0.898 | 0.476 | 0.624 | 0.592 | 0.665 | 1.06 | 0.884 | 0.494 | 0.867 | 0.685 | 0.661 | 0.464 | 1.03 | 0.635 | 0.794 | 0.457 |
| HHIDYYKETTN [FGFR1_Y654_K656E] | 0.979 | 0.893 | 0.814 | 1.09 | 1.03 | 1.39 | 0.997 | 0.646 | 0.935 | 0.878 | 0.799 | 0.866 | 1.13 | 0.996 | 0.985 | 1.47 |
| GKGGSYSQAAS [HLA-B_Y344_C349S] | 0.651 | 0.441 | 0.41 | 0.515 | 0.47 | 0.819 | 0.529 | 0.362 | 0.52 | 0.622 | 0.462 | 0.493 | 0.548 | 0.785 | 0.609 | 0.434 |
| GVRLFYRVRES [RB1_Y454_M457R_YF] | 1.05 | 0.461 | 0.529 | 0.513 | 0.471 | 1.16 | 0.349 | 0.417 | 0.65 | 0.976 | 0.375 | 0.383 | 1.25 | 0.578 | 0.705 | 0.476 |
| SSSNPYSTVTM [ACTN2_Y599] | 0.599 | 10.9 | 0.389 | 0.543 | 0.461 | 0.751 | 1.9 | 0.976 | 0.486 | 0.768 | 0.995 | 0.521 | 0.62 | 7.62 | 0.766 | 3.42 |
| LFSLGYHQSRW [GANAB_Y396] | 0.767 | 0.584 | 0.724 | 0.567 | 0.647 | 1.16 | 0.454 | 0.726 | 1.02 | 0.638 | 0.855 | 0.649 | 1.04 | 0.828 | 1.15 | 0.717 |
| RELGEYALAEF [ALDH1A3_Y492_YF] | 0.821 | 0.699 | 0.697 | 0.725 | 0.857 | 1.06 | 0.665 | 0.77 | 0.784 | 0.849 | 0.661 | 0.478 | 1.28 | 0.411 | 0.684 | 0.93 |
| VAFVYYKSIGP [ADGRL4_Y302] | 1.3 | 0.658 | 0.653 | 0.656 | 0.678 | 1.6 | 0.465 | 0.432 | 0.872 | 0.907 | 0.524 | 0.442 | 1.41 | 0.75 | 0.838 | 0.574 |
| KTSGNYLAVTG [WDR19_Y28] | 0.449 | 0.404 | 0.517 | 0.5 | 0.974 | 0.57 | 0.42 | 0.536 | 0.457 | 0.445 | 0.454 | 0.757 | 0.573 | 0.654 | 0.824 | 0.427 |

| Sequence | phosphorylation enrichment (Jak2) | phosphorylation enrichment (Fer (mouse)) | phosphorylation enrichment (EPHB2) | phosphorylation enrichment (FGFR1) | phosphorylation enrichment (EPHB1) | phosphorylation enrichment (Fes) | phosphorylation enrichment (c-Src) | phosphorylation enrichment (Fyn) | phosphorylation enrichment (FGFR3) | phosphorylation enrichment (c-Abl (mouse)) | phosphorylation enrichment (Hck) | phosphorylation enrichment (MERTK) | phosphorylation enrichment (AncSZ) | SH2 binding enrichment (SHP2-C SH2) | SH2 binding enrichment (Grb2 SH2) | SH2 binding enrichment (c-Src SH2) |
| --- | --- | --- | --- | --- | --- | --- | --- | --- | --- | --- | --- | --- | --- | --- | --- | --- |
| KDFNKYVAFIE [KDM4B_Y31_YF] | 0.744 | 0.434 | 0.429 | 0.399 | 0.43 | 0.836 | 0.456 | 0.513 | 0.581 | 0.629 | 0.505 | 0.424 | 0.799 | 1.02 | 0.864 | 1.42 |
| VLVSQYEKLDA [AMZ2_Y26_N30D] | 0.738 | 0.47 | 0.606 | 0.366 | 0.561 | 0.826 | 0.539 | 0.489 | 0.589 | 0.586 | 0.484 | 0.462 | 0.808 | 0.602 | 0.896 | 7.26 |
| FTDGQYWIRGR [ACSF3_Y466_K462T] | 0.818 | 0.408 | 0.463 | 0.425 | 0.509 | 0.992 | 0.588 | 0.422 | 0.555 | 0.611 | 1.03 | 0.521 | 1.02 | 0.489 | 0.648 | 0.358 |
| SFCFRYRCAAR [SUMF1_Y344_YF] | 0.643 | 0.472 | 0.571 | 0.47 | 0.466 | 0.634 | 0.618 | 0.49 | 0.54 | 0.763 | 0.469 | 0.614 | 0.772 | 0.483 | 0.669 | 0.4 |
| DQIDTYELSGG [DNM1_Y354] | 0.866 | 0.479 | 0.735 | 0.54 | 0.423 | 1.12 | 1.28 | 1.29 | 0.695 | 0.616 | 0.752 | 0.481 | 1.38 | 0.585 | 0.673 | 0.607 |
| FRASFYRKGGC [ALK_Y1283_YF] | 0.683 | 0.466 | 0.527 | 0.531 | 0.459 | 0.902 | 0.586 | 0.618 | 0.532 | 0.663 | 0.477 | 0.579 | 0.866 | 0.502 | 0.616 | 0.499 |
| PEADKYRLPYA [FGG_Y300_T303P] | 1.33 | 0.521 | 0.715 | 0.439 | 0.89 | 1 | 0.488 | 0.467 | 0.552 | 0.571 | 0.598 | 0.477 | 0.763 | 0.612 | 0.741 | 0.402 |
| ALVFLSFCIIF [SIGLEC12_Y494_Y494S] | 0.871 | 0.39 | 0.489 | 0.45 | 0.329 | 0.865 | 0.439 | 0.496 | 0.603 | 0.974 | 0.466 | 0.449 | 1.05 | 1.39 | 1.85 | 0.793 |
| KNEKVYTRHGV [FLOT1_Y56_S52N] | 0.392 | 0.316 | 0.33 | 0.352 | 0.243 | 0.487 | 0.357 | 0.355 | 0.356 | 0.435 | 0.344 | 0.375 | 0.514 | 0.749 | 0.998 | 0.585 |
| GFILMYDITNK [RAB3C_Y110_E115K] | 1.83 | 0.724 | 1.14 | 0.617 | 1.15 | 2.04 | 0.575 | 0.529 | 1.17 | 1.21 | 0.591 | 0.835 | 1.59 | 0.727 | 0.944 | 0.5 |
| KRGASYILKLA [SERPINB1_Y84] | 0.952 | 0.415 | 0.477 | 0.509 | 0.37 | 1.06 | 0.421 | 0.408 | 0.76 | 0.802 | 0.414 | 0.421 | 0.96 | 1.5 | 1.64 | 1.24 |
| MIAIRYSHSRR [ACOXL_Y260_T255M] | 0.434 | 0.324 | 0.465 | 0.377 | 0.539 | 0.487 | 0.426 | 0.444 | 0.518 | 0.473 | 0.43 | 0.353 | 0.875 | 0.652 | 0.959 | 0.56 |
| AHPIIYDIIEA [PYKtide_D_2014] | 0.949 | 11.9 | 10.7 | 0.699 | 12.7 | 2.13 | 6.44 | 7.74 | 0.794 | 5.89 | 8.25 | 9.44 | 1.41 | 0.483 | 0.819 | 1.25 |
| TLERHYEELQA [SPTBN2_Y834] | 0.947 | 1.7 | 0.522 | 0.472 | 0.648 | 1.06 | 0.505 | 0.541 | 0.677 | 0.836 | 0.591 | 0.578 | 1.04 | 0.52 | 0.586 | 18.6 |
| IHRWVYPLTPE [EIF2B5_Y319_R315H] | 0.885 | 0.405 | 0.503 | 0.488 | 0.525 | 0.918 | 0.446 | 0.511 | 0.698 | 0.621 | 0.487 | 0.487 | 1.03 | 1.29 | 1.25 | 1.06 |
| QLFGPYLRIHA [BSCL2_Y213_A212P_YF] | 1.35 | 0.427 | 0.548 | 0.733 | 1.13 | 1.56 | 0.785 | 0.588 | 1.03 | 0.628 | 0.515 | 0.485 | 1.25 | 1.54 | 1.33 | 1.17 |
